Assay results as given in paper PMC3734299, “Farnesyl Phosphatase, a Corpora allata Enzyme Involved in Juvenile Hormone Biosynthesis in Aedes aegypti” (PLoS ONE, 2013).

Assays:
AaFPPase-1 [1] = test system: T1, AaFPPase-1; experiment: malachite green phosphate release; type: biochemical, Aedes aegypti; details: 100 mM MES pH 6.0, 2 mM MgCl2, 37 °C; read-out: Km μM ±SE
T1 construct: His-tagged, expressed in E. coli, purified on HiTrap chelating and PD-10 columns, ~35 kDa
Excerpt: malachite green phosphate release on AaFPPase-1

AaFPPase-1 [2] = test system: T1, AaFPPase-1; experiment: p-NPP phosphatase assay, 96-well plate; type: biochemical, Aedes aegypti; details: Mg2+ cofactor; optimum pH 6.0
AaFPPase-2 [3] = biological target: T2, AaFPPase-2 (Aedes aegypti, UniProt Q0IF21); experiment: p-NPP phosphatase assay, inhibition; type: biochemical; details: inhibitor 0 to 40 µM, 10 min pre-incubation
T2 construct: gene 5568744; His-tagged, expressed in E. coli, purified on HiTrap chelating and PD-10 columns, ~35 kDa
T2 sequence (Q0IF21 1-315): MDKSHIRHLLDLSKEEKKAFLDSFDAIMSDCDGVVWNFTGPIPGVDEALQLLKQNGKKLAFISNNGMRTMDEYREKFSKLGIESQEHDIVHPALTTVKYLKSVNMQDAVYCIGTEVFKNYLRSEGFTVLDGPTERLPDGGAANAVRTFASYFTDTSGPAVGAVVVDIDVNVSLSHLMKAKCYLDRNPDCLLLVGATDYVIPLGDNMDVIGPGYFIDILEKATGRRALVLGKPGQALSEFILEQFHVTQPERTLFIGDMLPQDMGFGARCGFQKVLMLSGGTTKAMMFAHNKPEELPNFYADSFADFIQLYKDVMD

AaFPPase-2 [4] = biological target: T2, AaFPPase-2; experiment: malachite green phosphate release; type: biochemical; details: 100 mM MES pH 6.0, 2 mM MgCl2, 37 °C; read-out: Km μM ±SE
[5] = substrate: O=[N+]([O-])c1ccc(OP(=O)(O)O)cc1; experiment: p-NPP phosphatase assay, 96-well plate; type: biochemical, Aedes aegypti; details: Mg2+ cofactor, optimum pH 6.0
[6] = substrate: CC(C)=CCC/C(C)=C/CC/C(C)=C/CO[P@@](=O)(O)OP(=O)(O)O; experiment: malachite green phosphate release; type: biochemical, Aedes aegypti; details: 100 mM MES pH 6.0, 2 mM MgCl2, 37 °C
[7] = substrate: CC(C)=CCC/C(C)=C/COP(=O)(O)OP(=O)(O)O; experiment: malachite green phosphate release; type: biochemical, Aedes aegypti; details: 100 mM MES pH 6.0, 2 mM MgCl2, 37 °C

## CC(C)=CCC/C(C)=C/CC/C(C)=C/COP(=O)(O)OP(=O)(O)O [FPP]
AaFPPase-1 [1]
  Km: 222 ± 11 µM

## O=[N+]([O-])c1ccc(OP(=O)(O)O)cc1 [p-NPP]
AaFPPase-1 [2]
  Km: 3960 ± 127 µM

## CC(C)=CCC/C(C)=C/COP(=O)(O)OP(=O)(O)O [GPP]
AaFPPase-1 [1]
  Km: 184 ± 14.2 µM

## CC(=O)N[C@@H](CSC/C=C(\C)CC/C=C(\C)CC/C=C(\C)CCC=C(C)C)C(=O)O [AGGC]
AaFPPase-2 [3]
  inhibition: AGGC was a potent inhibitor of AaFPPase-1 and AaFPPase-2 (Figure S3)

## C=C(C)CCO[P@@](=O)(O)OP(=O)(O)O [IPP]
AaFPPase-1 [1]
  Km: > 900 µM
AaFPPase-2 [4]
  Km: > 900 µM

B1: AaFPPase-2 (Aedes aegypti) (protein)
chain: T2 sequence (Q0IF21 1-315)
notes: His-tagged, expressed in E. coli, purified on HiTrap chelating and PD-10 columns, ~35 kDa
[5]
  Km: 315.5 ± 46.9 µM
[6]
  Km: 221.02 ± 15.62 µM
  Vmax: 5.77 µmol/min/mg
  kcat: 2.98 s⁻¹
  kcat/Km: 13200 M⁻¹ s⁻¹
[7]
  Km: 273.98 ± 2.52 µM
  Vmax: 28.3 µmol/min/mg
  kcat: 17.5 s⁻¹
  kcat/Km: 63000 M⁻¹ s⁻¹
